Laboratory results reported in patent US9809653B2, “Anti-LAMP1 antibodies and antibody drug conjugates, and uses thereof” (SANOFI, priority 2012, dated 2017).

Experiments:
[1] = tested on: cynomolgus monkey LAMP1 protein (SEQ ID NO: 29); test: ELISA on cynomolgus monkey LAMP1; type: binding; settings: FIG. 3
Method: Extracellular domain of LAMP1 of human (Ala29-Met382 of SEQ ID NO: 24) and cynomolgus monkey LAMP1 (Ala27-Met380 of SEQ ID NO: 39) were prepared as described in example 6.2. […] The antibody binding was visualized by adding TMB-H2O2 buffer and read at a wavelength of 450 nm.
Antibody MAb4 was assessed for its ability to bind primate LAMP1 protein by enzyme-linked immunosorbent assay (ELISA) assay as described in example 4.7 and EC50 values determined as described in example 6.2.

[2] = molecular target: T1, human LAMP1 expressed transiently at the cell surface of HEK293 (Homo sapiens, UniProt P11279); test: FACS on HEK293 cells transiently transfected with human LAMP1; type: binding; settings: transient HEK293
T1 construct: expressed in transfected cells; host or cells: HEK293 (Invitrogen K9000-10), transient transfection
T1 sequence (P11279 29-417): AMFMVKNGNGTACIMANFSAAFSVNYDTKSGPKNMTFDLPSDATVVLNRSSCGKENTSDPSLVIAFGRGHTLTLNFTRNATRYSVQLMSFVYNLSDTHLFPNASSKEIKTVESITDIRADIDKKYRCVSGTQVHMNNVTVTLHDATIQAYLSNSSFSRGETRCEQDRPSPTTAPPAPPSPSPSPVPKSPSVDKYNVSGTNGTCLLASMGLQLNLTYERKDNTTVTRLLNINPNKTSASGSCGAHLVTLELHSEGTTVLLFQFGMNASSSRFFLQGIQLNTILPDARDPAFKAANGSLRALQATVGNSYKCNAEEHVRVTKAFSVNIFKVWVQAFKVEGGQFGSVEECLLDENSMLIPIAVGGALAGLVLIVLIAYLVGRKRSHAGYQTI
Excerpt: LAMP1 Coding DNA Sequence, RefSeq NM_005561.3 (SEQ ID NO: 23) was cloned internally. The CDS of Macaca mulatta LAMP1, RefSeq XP_001087801 (SEQ ID NO: 27) was also cloned internally. The predicted sequences of mature LAMP1 from Macaca mulatta and Macaca fascicularis are identical to 99%, said sequence differing by one additional Leucin at position 11 of Macaca mulatta (SEQ ID NO: 27), i.e. in the signal peptide. The mature LAMP1 proteins of Macaca mulatta and Macaca fascicularis are identical. Therefore the secreted LAMP1 used in the following example is referred to cynomolgus monkey. Both CDS were cloned into mammalian expression plasmids under CMV enhancer/promoter and SV40 polyA signals. HEK293 cells (Invitrogen; #K9000-10.) were transiently transfected with human LAMP1 or cynomolgus LAMP1 plasmids using FreeStyle™ MAX 293 Expression System according to the manufacturer's instructions. […] 100 μL/well of goat anti-mouse IgG conjugated with Alexa647 (Invitrogen; #A2135) was added for 45 min at 4° C. and washed three times with PBS 1% BSA. The antibody binding was evaluated after centrifugation and resuspension of cells by adding 200 μl/well PBS 1% BSA and read using Guava® easyCyte™ 8HT Flow Cytometry System. EC50 values were estimated using BIOST@T-SPEED software.

[3] = molecular target: T2, LAMP1 in human tumoral and non-tumoral tissues (Homo sapiens, UniProt P11279); test: IHC on frozen-OCT / AFA human tumoral and non-tumoral tissues; settings: CR-LRB-010P, human non-tumoral colon and skin
T2 construct: from tissue; host or cells: human tumoral and non-tumoral tissue sections and PDX tumour sections (frozen-OCT, AFA, FFPE)
T2 sequence (P11279 29-417): T1 sequence (P11279 29-417)
Method: Individual hybridoma supernatants raised against tumor tissue CR-LRB-010P were screened by IHC on a macroarray slide containing frozen sections of immunizing tumor (CR-LRB-010P), human non-tumoral colon and human non-tumoral skin. Frozen-OCT (from Optimal Cutting Temperature) specimens of non-tumoral colon and skin were obtained from surgical cases (commercial sources such as Asterand, US Biomax, Strasbourg Hospital). The automated immunostaining was performed unsing Ventana Discovery and Discovery XT automated systems (Ventana Medical Systems, Inc, USA).
Frozen 10 μm cryostat sections were incubated with IgG culture supernatants as primary antibody (unknown concentration, dilution ⅓ in Phosphate Buffer Saline, PBS) for 40 min at 37° C. Culture medium was used as negative control. A postfixation step with glutaraldehyde (0.05% in NaCl 0.9% w/v) for 4 min was done. The secondary antibody Affinipure rabbit anti-mouse IgG (315-005_008, Jackson Immunosearch Laboratories, Inc. USA) was used at 4.8 μg/mL and incubated for 12 min at 37° C. Immunostaining was done with UltraMap Red chromogenic detection kit according to manufacturers recommendations for 8 min. Cryostat sections were subsequently couterstaining with hematoxylin II (790-2208, Ventana Medical Systems, Inc USA) and bluing for 4 min (760-2037). […]
Sections immunostained with mAbs were analyzed by microscope (Nikon Eclipse E400). […]

cynomolgus monkey LAMP1 protein (SEQ ID NO: 29), sequence (as listed by the source): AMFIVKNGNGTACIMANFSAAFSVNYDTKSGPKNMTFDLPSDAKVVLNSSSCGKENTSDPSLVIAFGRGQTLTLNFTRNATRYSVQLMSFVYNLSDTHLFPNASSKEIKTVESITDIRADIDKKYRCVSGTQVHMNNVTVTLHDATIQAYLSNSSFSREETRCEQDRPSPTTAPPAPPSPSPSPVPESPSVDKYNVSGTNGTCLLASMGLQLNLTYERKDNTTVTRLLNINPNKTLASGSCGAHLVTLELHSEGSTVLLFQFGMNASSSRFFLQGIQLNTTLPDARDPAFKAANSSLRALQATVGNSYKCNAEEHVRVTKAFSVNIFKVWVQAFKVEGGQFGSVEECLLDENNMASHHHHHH

Binding affinity, cynomolgus monkey LAMP1 versus human LAMP1 [1]: in the same range | EC50 [2]: 14 nM
B1: MAb1: murine monoclonal anti-LAMP1 antibody, VH SEQ ID NO: 1, VL SEQ ID NO: 5 (antibody, V domains shown)
VH: QVQLQQSGAELVKPGASVKMSCKASGYIFTNYNIHWVKKSPGQGLEWIGAIYPGNGDAPYSQKFKDKATLTADKSSSTTYMQLSRLTSEDSAVYYCVRANWDVAFAYWGQGTLVSVSA
VL: DIQMTQSPPSLSASLGGKVTITCKASQDIDRYMAWYQDKPGKGPRLLIHDTSTLQPGIPSRFSGSGSGRDYSFSISNLEPEDIATYYCLQYDNLWTFGGGTKLEIK
modifications: Antibody Fragment; antibody fragment
IHC reactivity on frozen sections [3]: showed evidence of tumor-associated reactivity
